{"source": "the supplement of paper PMC11316812", "key": {"MCF7": {"test_system": "MCF7", "test": "percentage of EdU-negative (G0-arrested) nuclei per well, 72 h; higher = more G0 arrest", "conditions": "reference: sequence is the full UniProt precursor, the tested protein was the secreted form or ectodomain"}, "hTERT-HMEC": {"test_system": "hTERT-HMEC", "test": "percentage of EdU-negative (G0-arrested) nuclei per well, 72 h; higher = more G0 arrest", "conditions": "reference: sequence is the full UniProt precursor, the tested protein was the secreted form or ectodomain"}, "[1]": {"conditions": "protein concentration 0.0225 µM"}, "[2]": {"conditions": "protein concentration 0.0111429 µM"}, "[3]": {"conditions": "protein concentration 0.111429 µM"}, "[4]": {"conditions": "protein concentration 0.03125 µM"}, "[5]": {"conditions": "protein concentration 0.3125 µM"}, "[6]": {"conditions": "protein concentration 0.0215 µM"}, "[7]": {"conditions": "protein concentration 0.01025 µM"}, "[8]": {"conditions": "protein concentration 0.1025 µM"}}, "note": "± gives the standard deviation of the averaged measurements.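 Also: secreted proteins added to cultured cells, EdU pulse at the end, nuclei found by Hoechst imaging, EdU status from nuclear versus surrounding ring intensity ratio, PBS as neutral control.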", "data": [{"substance": "MEACCLLQLPQRLLLLGAAALTATALETADLAELCGQTWQGDGLLLRSHAASRRFYFVAPDTDCGLWVQAAAPGDRIRFQFRFFLVYSLTPAPPALNTSSPAPADPCAPGSYLQFYEGPPGAPRPLGSPLCGLNIPVPVASSGPFLGLRLVTRGRQPRVDFVGEVTSFRLGPCGAYFRCQNGRCIPSSLVCDPWGMDNCGDGSDQGSWSPADCRGPSPVPSQTGSTDAHTSRSLTPSPALGSAGSLWIAAERSSPAGRDPTRQDAALEGSTE [Q5SZI1]", "values": [{"measurement": "percentage of EdU-negative", "setting": "MCF7; [1]", "value": "24.6 ± 1.8", "unit": "%"}, {"measurement": "percentage of EdU-negative", "setting": "MCF7; protein concentration 0.225 µM", "value": "25.3 ± 0.88", "unit": "%"}, {"measurement": "percentage of EdU-negative", "setting": "hTERT-HMEC; [1]", "value": "5.13 ± 0.83", "unit": "%"}, {"measurement": "percentage of EdU-negative", "setting": "hTERT-HMEC; protein concentration 0.225 µM", "value": "5.979 ± 0.048", "unit": "%"}]}, {"substance": "Q9ULB1", "values": [{"measurement": "percentage of EdU-negative", "setting": "MCF7; [2]", "value": "25.5 ± 2.5", "unit": "%"}, {"measurement": "percentage of EdU-negative", "setting": "MCF7; [3]", "value": "26.3 ± 2.4", "unit": "%"}, {"measurement": "percentage of EdU-negative", "setting": "hTERT-HMEC; [2]", "value": "5.3 ± 0.36", "unit": "%"}, {"measurement": "percentage of EdU-negative", "setting": "hTERT-HMEC; [3]", "value": "9.04 ± 0.11", "unit": "%"}]}, {"substance": "MAFDVSCFFWVVLFSAGCKVITSWDQMCIEKEANKTYNCENLGLSEIPDTLPNTTEFLEFSFNFLPTIHNRTFSRLMNLTFLDLTRCQINWIHEDTFQSHHQLSTLVLTGNPLIFMAETSLNGPKSLKHLFLIQTGISNLEFIPVHNLENLESLYLGSNHISSIKFPKDFPARNLKVLDFQNNAIHYISREDMRSLEQAINLSLNFNGNNVKGIELGAFDSTIFQSLNFGGTPNLSVIFNGLQNSTTQSLWLGTFEDIDDEDISSAMLKGLCEMSVESLNLQEHRFSDISSTTFQCFTQLQELDLTATHLKGLPSGMKGLNLLKKLVLSVNHFDQLCQISAANFPSLTHLYIRGNVKKLHLGVGCLEKLGNLQTLDLSHNDIEASDCCSLQLKNLSHLQTLNLSHNEPLGLQSQAFKECPQLELLDLAFTRLHINAPQSPFQNLHFLQVLNLTYCFLDTSNQHLLAGLPVLRHLNLKGNHFQDGTITKTNLLQTVGSLEVLILSSCGLLSIDQQAFHSLGKMSHVDLSHNSLTCDSIDSLSHLKGIYLNLAANSINIISPRLLPILSQQSTINLSHNPLDCTCSNIHFLTWYKENLHKLEGSEETTCANPPSLRGVKLSDVKLSCGITAIGIFFLIVFLLLLAILLFFAVKYLLRWKYQHI", "values": [{"measurement": "percentage of EdU-negative", "setting": "MCF7; [1]", "value": "27.1 ± 4.8", "unit": "%"}, {"measurement": "percentage of EdU-negative", "setting": "MCF7; protein concentration 0.225 µM", "value": "29.8 ± 3.2", "unit": "%"}, {"measurement": "percentage of EdU-negative", "setting": "hTERT-HMEC; [1]", "value": "5.21 ± 0.11", "unit": "%"}, {"measurement": "percentage of EdU-negative", "setting": "hTERT-HMEC; protein concentration 0.225 µM", "value": "7.06 ± 0.86", "unit": "%"}]}, {"substance": "MEIPVPVQPSWLRRASAPLPGLSAPGRLFDQRFGEGLLEAELAALCPTTLAPYYLRAPSVALPVAQVPTDPGHFSVLLDVKHFSPEEIAVKVVGEHVEVHARHEERPDEHGFVAREFHRRYRLPPGVDPAAVTSALSPEGVLSIQAAPASAQAPPPAAAK", "values": [{"measurement": "percentage of EdU-negative", "setting": "MCF7; [1]", "value": "27 ± 0.81", "unit": "%"}, {"measurement": "percentage of EdU-negative", "setting": "MCF7; protein concentration 0.225 µM", "value": "25.6 ± 1.1", "unit": "%"}, {"measurement": "percentage of EdU-negative", "setting": "hTERT-HMEC; [1]", "value": "4.93 ± 0.29", "unit": "%"}, {"measurement": "percentage of EdU-negative", "setting": "hTERT-HMEC; protein concentration 0.225 µM", "value": "5.53 ± 0.95", "unit": "%"}]}, {"substance": "MKYTSYILAFQLCIVLGSLGCYCQDPYVKEAENLKKYFNAGHSDVADNGTLFLGILKNWKEESDRKIMQSQIVSFYFKLFKNFKDDQSIQKSVETIKEDMNVKFFNSNKKKRDDFEKLTNYSVTDLNVQRKAIHELIQVMAELSPAAKTGKRKRSQMLFRGRRASQ", "values": [{"measurement": "percentage of EdU-negative", "setting": "MCF7; [4]", "value": "39.5 ± 2.2", "unit": "%"}, {"measurement": "percentage of EdU-negative", "setting": "MCF7; [5]", "value": "42.7 ± 1.8", "unit": "%"}, {"measurement": "percentage of EdU-negative", "setting": "hTERT-HMEC; [4]", "value": "92.2 ± 1.5", "unit": "%"}, {"measurement": "percentage of EdU-negative", "setting": "hTERT-HMEC; [5]", "value": "96.92 ± 0.62", "unit": "%"}]}, {"substance": "MATMENKVICALVLVSMLALGTLAEAQTETCTVAPRERQNCGFPGVTPSQCANKGCCFDDTVRGVPWCFYPNTIDVPPEEECEF", "values": [{"measurement": "percentage of EdU-negative", "setting": "MCF7; [6]", "value": "25.09 ± 0.25", "unit": "%"}, {"measurement": "percentage of EdU-negative", "setting": "MCF7; protein concentration 0.215 µM", "value": "25 ± 1.6", "unit": "%"}, {"measurement": "percentage of EdU-negative", "setting": "hTERT-HMEC; [6]", "value": "4.62 ± 0.35", "unit": "%"}, {"measurement": "percentage of EdU-negative", "setting": "hTERT-HMEC; protein concentration 0.215 µM", "value": "5.31 ± 0.26", "unit": "%"}]}, {"substance": "MAAATGPSFWLGNETLKVPLALFALNRQRLCERLRKNPAVQAGSIVVLQGGEETQRYCTDTGVLFRQESFFHWAFGVTEPGCYGVIDVDTGKSTLFVPRLPASHATWMGKIHSKEHFKEKYAVDDVQYVDEIASVLTSQKPSVLLTLRGVNTDSGSVCREASFDGISKFEVNNTILHPEIVECRVFKTDMELEVLRYTNKISSEAHREVMKAVKVGMKEYELESLFEHYCYSRGGMRHSSYTCICGSGENSAVLHYGHAGAPNDRTIQNGDMCLFDMGGEYYCFASDITCSFPANGKFTADQKAVYEAVLRSSRAVMGAMKPGVWWPDMHRLADRIHLEELAHMGILSGSVDAMVQAHLGAVFMPHGLGHFLGIDVHDVGGYPEGVERIDEPGLRSLRTARHLQPGMVLTVEPGIYFIDHLLDEALADPARASFLNREVLQRFRGFGGVRIEEDVVVTDSGIELLTCVPRTVEEIEACMAGCDKAFTPFSGPK", "values": [{"measurement": "percentage of EdU-negative", "setting": "MCF7; [7]", "value": "26 ± 1", "unit": "%"}, {"measurement": "percentage of EdU-negative", "setting": "MCF7; [8]", "value": "27.3 ± 1.4", "unit": "%"}, {"measurement": "percentage of EdU-negative", "setting": "hTERT-HMEC; [7]", "value": "5.01 ± 0.5", "unit": "%"}, {"measurement": "percentage of EdU-negative", "setting": "hTERT-HMEC; [8]", "value": "4.28 ± 0.51", "unit": "%"}]}, {"substance": "MAKVFSFILVTTALTMGREISALEDCAQEQMRLRAQVRLLETRVKQQQVKIKQLLQENEVQFLDKGDENTVIDLGSKRQYADCSEIFNDGYKLSGFYKIKPLQSPAEFSVYCDMSDGGGWTVIQRRSDGSENFNRGWKDYENGFGNFVQKHGEYWLGNKNLHFLTTQEDYTLKIDLADFEKNSRYAQYKNFKVGDEKNFYELNIGEYSGTAGDSLAGNFHPEVQWWASHQRMKFSTWDRDHDNYEGNCAEEDQSGWWFNRCHSANLNGVYYSGPYTAKTDNGIVWYTWHGWWYSLKSVVMKIRPNDFIPNVI", "values": [{"measurement": "percentage of EdU-negative", "setting": "MCF7; [4]", "value": "24.5 ± 4.1", "unit": "%"}, {"measurement": "percentage of EdU-negative", "setting": "MCF7; [5]", "value": "22.8 ± 2.3", "unit": "%"}, {"measurement": "percentage of EdU-negative", "setting": "hTERT-HMEC; [4]", "value": "6.18 ± 1.3", "unit": "%"}, {"measurement": "percentage of EdU-negative", "setting": "hTERT-HMEC; [5]", "value": "5.22 ± 0.14", "unit": "%"}]}]}
